{"source": "patent US7807396B2", "about": "“Insulin degrading enzyme assays for treatment of alzheimer's disease” (University of Kentucky Research Foundation, priority 2000, dated 2010)", "molecules": {"B1": {"name": "enzyme purified from a thymoma cell line, EL-4: insulysin enzyme purified from a thymoma cell line, EL-4, used for comparison of specific activity (protein, UniProt Q9JHR7 1-1019, looked up)", "Insulin-degrading enzyme": "MRNGLVWLLHPALPGTLRSILGARPPPAKRLCGFPKQTYSTMSNPAIQRIEDQIVKSPEDKREYRGLELANGIKVLLISDPTTDKSSAALDVHIGSLSDPPNIPGLSHFCEHMLFLGTKKYPKENEYSQFLSEHAGSSNAFTSGEHTNYYFDVSHEHLEGALDRFAQFFLCPLLDASCKDREVNAVDSEHEKNVMNDAWRLFQLEKATGNPKHPFSKFGTGNKYTLETRPNQEGIDVREELLKFHSTYYSSNLMAICVLGRESLDDLTNLVVKLFSEVENKNVPLPEFPEHPFQEEHLRQLYKIVPIKDIRNLYVTFPIPDLQQYYKSNPGYYLGHLIGHEGPGSLLSELKSKGWVNTLVGGQKEGARGFMFFIINVDLTEEGLLHVEDIILHMFQYIQKLRAEGPQEWVFQECKDLNAVAFRFKDKERPRGYTSKIAGKLHYYPLNGVLTAEYLLEEFRPDLIDMVLDKLRPENVRVAIVSKSFEGKTDRTEQWYGTQYKQEAIPEDVIQKWQNADLNGKFKLPTKNEFIPTNFEILSLEKDATPYPALIKDTAMSKLWFKQDDKFFLPKACLNFEFFSPFAYVDPLHCNMAYLYLELLKDSLNEYAYAAELAGLSYDLQNTIYGMYLSVKRYNDKQPILLKKITEKMATFEIDKKRFEIIKEAYMRSLNNFRAEQPHQHAMYYLRLLMTEVAWTKDELKEALDDVTLPRLKAFIPQLLSRLHIEALLHGNITKQAALGVMQMVEDTLIEHAHTKPLLPSQLVRYREVQLPDRGWFVYQQRNEVHNNCGIEIYYQTDMQSTSENMFLELFCQIISEPCFNTLRTKEQLGYIVFSGPRRANGIQGLRFIIQSEKPPHYLESRVEAFLITMEKAIEDMTEEAFQKHIQALAIRRLDKPKKLSAECAKYWGEIISQQYNYDRDNIEVAYLKTLTKDDIIRFYQEMLAVDAPRRHKVSVHVLAREMDSCPVVGEFPSQNDINLSEAPPLPQPEVIHNMTEFKRGLPLFPLVKPHINFMAAKL"}}, "molecular_target": "T1, β-endorphin (Homo sapiens, UniProt P01189)", "T1 construct": "Human β-endorphin1-31; purchased National Institute on Drug Abuse drug supply system", "T1 sequence (P01189 237-267)": "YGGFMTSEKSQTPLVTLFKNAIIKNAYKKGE", "experiment": "Insulysin activity determination, disappearance of β-endorphin by HPLC", "type": "biochemical", "conditions": "30 μM β-endorphin, 37° C.", "protocol": "Materials. […] Solutions were prepared by dissolving the peptide in dimethylsulfoxide (DMSO) to give a stock concentration of 200 μM. The peptide stock was lyophilized and stored at −80° C. until use. The aggregation state of Aβ peptide stock solutions was checked by electron microscopy (Ray et al. (2000) Brain Res 853:344-351) and found to be predominantly, if not exclusively, monomeric. For the in vitro reactions with insulysin, a final concentration of 25 μM Aβ1-40 was obtained after bringing the lyophilized peptide into solution with double distilled water. […] Human β-endorphin1-31, obtained from the National Institute on Drug Abuse drug supply system, was dissolved in water to give a stock solution of 300 μM. Trifluoroacetic acid (Sigma Biochemicals, St. Louis, Mo.) was diluted into water to produce a 5% working solution.\nInsulysin activity was assayed by measuring the disappearance of β-endorphin by isocratic reverse phase HPLC (Safavi et al. (1996) Biochemistry 1996 35:14318-14325). A 100 μl reaction mixture containing 40 mM potassium phosphate buffer, pH 7.2, 30 μM β-endorphin, and enzyme was incubated for 15 minutes at 37° C. […] The β-endorphin peak was detected by absorbance at 214 nm using a Waters 484 detector. The reaction was quantitated by measuring the decrease in the β-endorphin peak area.", "data": [{"molecule": "B1", "values": [{"measurement": "specific activity", "value": 3.3, "unit": "μmols/min/mg"}]}]}
